Data taken from article PMC2744881 (Journal of molecular biology, 2009).
Positions count from the first letter of the chain named. In names and notes the source's numbering stands.

T1: N-terminally His10-tagged SufC protein (E. coli, UniProt P77499 1-248)
T1 sequence (looked up): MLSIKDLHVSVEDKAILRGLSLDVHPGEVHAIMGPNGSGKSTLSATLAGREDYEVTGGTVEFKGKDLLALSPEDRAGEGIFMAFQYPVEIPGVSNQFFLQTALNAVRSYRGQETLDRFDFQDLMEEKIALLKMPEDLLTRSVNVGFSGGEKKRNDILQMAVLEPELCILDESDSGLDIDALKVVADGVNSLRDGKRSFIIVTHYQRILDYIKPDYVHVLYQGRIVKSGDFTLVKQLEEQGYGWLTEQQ

T2: SufD of the purified SufB-SufC-SufD complex (E. coli, UniProt P77689 1-423)
T2 sequence: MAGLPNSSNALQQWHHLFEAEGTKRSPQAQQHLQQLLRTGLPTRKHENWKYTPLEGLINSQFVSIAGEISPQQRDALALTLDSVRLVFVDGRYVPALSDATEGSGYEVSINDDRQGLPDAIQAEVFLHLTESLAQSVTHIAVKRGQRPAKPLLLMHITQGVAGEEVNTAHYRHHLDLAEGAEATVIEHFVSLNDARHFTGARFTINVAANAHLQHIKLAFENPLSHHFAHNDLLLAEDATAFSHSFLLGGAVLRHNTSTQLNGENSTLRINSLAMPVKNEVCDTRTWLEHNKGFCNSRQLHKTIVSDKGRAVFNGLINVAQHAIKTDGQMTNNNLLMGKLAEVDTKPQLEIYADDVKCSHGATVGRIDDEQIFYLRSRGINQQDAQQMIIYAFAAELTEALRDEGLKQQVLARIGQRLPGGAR

B1: SufD protein (natural protein, E. coli, UniProt P77689 1-423, looked up)
chain: T2 sequence
B2: wild-type SufD (reference of the gel filtration of His-tagged SufD proteins) (natural protein, E. coli)
chain: T2 sequence
B3: SufC of the purified SufB-SufC-SufD complex (natural protein, E. coli)
chain: T1 sequence (looked up)
B4: SufB of the purified SufB-SufC-SufD complex (natural protein, E. coli, UniProt P77522 1-495, looked up)
chain: MSRNTEATDDVKTWTGGPLNYKEGFFTQLATDELAKGINEEVVRAISAKRNEPEWMLEFRLNAYRAWLEMEEPHWLKAHYDKLNYQDYSYYSAPSCGNCDDTCASEPGAVQQTGANAFLSKEVEAAFEQLGVPVREGKEVAVDAIFDSVSVATTYREKLAEQGIIFCSFGEAIHDHPELVRKYLGTVVPGNDNFFAALNAAVASDGTFIYVPKGVRCPMELSTYFRINAEKTGQFERTILVADEDSYVSYIEGCSAPVRDSYQLHAAVVEVIIHKNAEVKYSTVQNWFPGDNNTGGILNFVTKRALCEGENSKMSWTQSETGSAITWKYPSCILRGDNSIGEFYSVALTSGHQQADTGTKMIHIGKNTKSTIISKGISAGHSQNSYRGLVKIMPTATNARNFTQCDSMLIGANCGAHTFPYVECRNNSAQLEHEATTSRIGEDQLFYCLQRGISEEDAISMIVNGFCKDVFSELPLEFAVEAQKLLAISLEHSVG
B5: N-terminal His-tag SufD with H360C mutation (natural protein, E. coli)
chain: T2 sequence with H360C
B6: N-terminal His-tag SufD with H360S mutation (natural protein, E. coli)
chain: T2 sequence with H360S

Key:
crystal structure = molecular target: the molecule itself; assay: crystal structure
[1] = molecular target: T1, N-terminally His10-tagged SufC protein; assay: SEC
SEC = molecular target: the molecule itself; assay: SEC
[2] = molecular target: T2, SufD of the purified SufB-SufC-SufD …; assay: SEC
[3] = molecular target: B4; assay: SEC

Row | Binder | stoichiometry N (SEC) | stoichiometry N [2] | further results
1 | B1 | – | – | stoichiometry N (crystal structure): 2; stoichiometry N [1]: ~1
2 | B2 | 2 | – | –
3 | B3 | – | ~2 | stoichiometry N [3]: ~2
4 | B4 | – | ~1 | –
5 | B5 | 2 | – | –
6 | B6 | 2 | – | –
